Assay results reported in patent US9770469B2, “Methods of reprogramming renal cells” (Tel HaShomer Medical Research Infrastructure and Services …, priority 2009, dated 2017).

Legend:
human fetal kidney cells = assay: qRT-PCR after Wnt antagonists DKK1/sFRP1 with or without VPA; type: cell-based
Protocol: (§1) Cell Treatment: Cells were treated for 24 hours with growth medium supplemented with 1, 2, or 4 mM VPA (Sigma) or with H2O for control sample. Otherwise, cells were treated for 24 hours with growth medium supplemented with the combination of 75 μM TSA (Sigma) and 250 μM 5-AZA (Sigma) or with 100% Ethanol and Acetic Acid (Acetic Acid: H2O 1:1) for control sample. […] 24 hours prior to harvesting VPA at a concentration of 4 mM was added to the cell culture.
(§2) Quantitative Reverse Transcription-PCR: Total RNA from kidney tissue cultured cells was isolated using the TRIZOL reagent (Invitrogen) according to the manufacturer's protocols. cDNA synthesis was carried out using Verso kit (Thermo scientific) with Random primers. Quantitative RT PCR was performed using an ABI7900HT sequence detection system (Perkin-Elmer/Applied Biosystems) in the presence of SYBR green (SYBR green PCR kit; Qiagen). Each analysis reaction was performed in duplicates or triplicates. GapDH was used as an endogenous control throughout all experimental analyses. Analysis was performed using the −ΔΔCt method, which determines fold changes in gene expression relative to a comparator sample.

human adult kidney cells = assay: as above; type: cell-based; conditions: DKK1 3 μg/ml or sFRP1 7 μg/ml 72 h; for Osr1 expression, Wnt antagonist combined with VPA / Six2 expression, Wnt antagonist combined with VPA: VPA 4 mM last 24 h; for Osr1 expression, Wnt antagonist alone: no VPA
Protocol: as §1, §2

[1] = fetal kidney cells, DKK1 3 μg/ml or sFRP1 7 μg/ml 72 h, VPA 4 mM last 24 h
[2] = fetal kidney cells, DKK1 3 μg/ml or sFRP1 7 μg/ml 72 h, no VPA

B1: DKK1: Wnt pathway antagonist (R&D systems) (protein, UniProt O94907 32-266, looked up)
Dickkopf-related protein 1: TLNSVLNSNAIKNLPPPLGGAAGHPGSAVSAAPGILYPGGNKYQTIDNYQPYPCAEDEECGTDEYCASPTRGGDAGVQICLACRKRRKRCMRHAMCCPGNYCKNGICVSSDQNHFRGEIEETITESFGNDHSTLDGYSRRTTLSSKMYHTKGQEGSVCLRSSDCASGLCCARHFWSKICKPVLKEGQVCTKHRRKGSHGLEIFQRCYCGEGLSCRIQKDHHQASNSSRLHTCQRH
- Osr1 expression, Wnt antagonist combined with VPA (human fetal kidney cells; [1]): synergistic affect
- Osr1 expression, Wnt antagonist alone (human fetal kidney cells; [2]): little effect
- Osr1 expression, Wnt antagonist combined with VPA (human adult kidney cells): synergistic affect
- Six2 expression, Wnt antagonist combined with VPA (human adult kidney cells): synergistic effect
- Osr1 expression, Wnt antagonist alone (human adult kidney cells): little effect

B2: sFRP1: Wnt pathway antagonist (R&D systems) (protein, UniProt Q8N474 32-314, looked up)
Secreted frizzled-related …: SEYDYVSFQSDIGPYQSGRFYTKPPQCVDIPADLRLCHNVGYKKMVLPNLLEHETMAEVKQQASSWVPLLNKNCHAGTQVFLCSLFAPVCLDRPIYPCRWLCEAVRDSCEPVMQFFGFYWPEMLKCDKFPEGDVCIAMTPPNATEASKPQGTTVCPPCDNELKSEAIIEHLCASEFALRMKIKEVKKENGDKKIVPKKKKPLKLGPIKKKDLKKLVLYLKNGADCPCHQLDNLSHHFLIMGRKVKSQYLLTAIHKWDKKNKEFKNFMKKMKNHECPTFQSVFK
- Six2 expression, Wnt antagonist alone (human fetal kidney cells; FK cells, DKK1 3 μg/ml or sFRP1 7 μg/ml 72 h, no VPA): elevated Six2 levels
- Osr1 expression, Wnt antagonist combined with VPA (human fetal kidney cells; [1]): synergistic affect
- Osr1 expression, Wnt antagonist alone (human fetal kidney cells; [2]): little effect
- Six2 expression, Wnt antagonist combined with VPA (human fetal kidney cells; fetal kidney cells, sFRP1 7 μg/ml 72 h, VPA 4 mM last 24 h): synergistic effect
- Osr1 expression, Wnt antagonist combined with VPA (human adult kidney cells): synergistic affect
- Six2 expression, Wnt antagonist combined with VPA (human adult kidney cells): synergistic effect
- Osr1 expression, Wnt antagonist alone (human adult kidney cells): little effect
